Laboratory results: a protein production outcome set (Wang et al. 2014)

Assay: label from the status in PepcDB records

| Sequence | protein production |
| --- | --- |
| MYINHAAEMLLCNSSVVVRCRATRGVSESLARPGGVTMHKRLTEETHHSAGSPEQPEIAGLHRELAEARQALETLYAALDNVDAGLLILNEELRAVYSNPVLHVMFRANSAEEIRQNRPLYAEMLAASAQAVAVNLEDYVSRRLAWVQSGDPKPMDLAMTDGTALRCHLAVLPGGGRMLIYSDVTDIVRNAEELERLATTDGMTGVYNRRHFLTLADREWSRARRYERPMSFLMIDIDYFKAINDGFGHQVGDEMIVHLARLARDCKRDCDVLARLGGEEFALLLPETDLAQAEVVAERLRREVAGNALVVASHAIPATVSIGVATALPGMKDVSDLMKAADQALYDAKHAGRNRVICRACHDPAPTLVPALTPRCEAATMR | failed |
| MYIPKYFKVTNAEEIWNFVQENSFGTVVTTEQGKPIATHLPLGFNKKDDHYYITGHFAYGNPQWRTFEACEDVLVMFQGPHAYISSSWYSRENVPTWNYQAVHMYGKASMLEKDELAEELTIMLEQKTPTQAFSVLWDKLSPKLLESELKGIVGFKIKVEDIQAAYKLSQN | failed |
| MYIVIAGGGEMGGELARALEKTHDVVVIDRNPQARERFASWDVKVVVGGATDPDTLREAGVDRADLFVASTDSDEINLLASLLAKGLGAKEAFCFVGKGGYVEVLTDPRTAEILGTRIDRVLWPQRAMAREIVEVILVPWAVDTEVLAGGRLRFVEYRVKEGGEYVHRLLSGEKWPEGVLLAGVVREGTFLSFAHPEFPELILEPGDKLLFVATQKAFSELAAYFTEGPGVRRVMVIGGGNVGFMVAQGLLKRRVEVVIVERNAERCQWLSEELPGALVIQGDGTDIELLEAEGMAEADAVVAVTDHDEKNLLASLLAKQMGVRKVITRVSRSETRRLFEQVGIDLALTPRQAAVREVLDWIGPENVEHIATLEESIEVLEVLVSEGAAPKALRDLVRPDAVPVALERDHRIFLYEEGLGLLPGDRLYLVAAREVADEVLAPFFPE | failed |
| MYIVNSNKSRGSSVERYIVSRLRDKGFAVIRAPASGSKRKDHVPDIIALKSGVIILIEVKSRKNGQKIYIEKEQAEGIREFAKRSGGELFLGVKLPKMLRFIKFDMLRQTEGGNYAIDLETVEKGMELEDLVRYVESKISRTLDSFL | not failed |
| MYIVNSYTLAIIFCFITMICWGSWGNTQKLASKNWRYELYYWDYTIGILLFALLLVFTLGSFGDSGRGFLEDIQQVEAAYIASALIGGAIFNASNILLSASVSIAGMAVAFPLGVGLALVLGVFINYFSSPKGDPFWLFTGVVLIVIAIICNGIAAGKNQKAGTNNSKKGIILAAIAGILMSFFYRFVAAAMDLNNFESPTTGMATPYTAFFIFAIGIFLSNFLFNTLVMKRPFVGLPVTYKEYFAGKASTHMVGILGGCIWGLGTALSYIAAGKAGAAISYALGQGAPMIAALWGVFIWKEFTGSSKATNRLLGVMFILFILGLTFIVISGGS | failed |
| MYKLDLPTLMDAFHKVFHVSMLRKCITHQENVISEPPPDLLENMMIVGMLIPNLLGVSSEMVGR | failed |
| MYKLVLIRHGESTWNKENRFTGWVDVDLTEQGNREARQAGQLLKEAGYTFDIAYTSVLKRAIRTLWHVQDQMDLMYVPVVHSWRLNERHYGALSGLNKAETAAKYGDEQVLVWRRSYDTPPPALEPGDERAPYADPRYAKVPREQLPLTECLKDTVARVLPLWNESIAPAVKAGKQVLIAAHGNSLRALIKYLDGISDADIVGLNIPNGVPLVYELDESLTPIRHYYLGDQEAIAKAQAAVAQQGKSAA | not failed |
| MYLKARQDELTESTIQSQEYRLEAFEQFCREEGIENLNDLSGRDLYAYRVWRREGNGKGRDEIEPITLRGQLATVRSFLRFAAEVDAVPEDLRTKVPLPTISNAGEVSASTLDPERADVILDYLQMYKYASRVHVIALLLWHTGARMGAIRGLDIDDCELEQDNPGIQFVHRPQTDTPLKNGEKGQRWNAISDHVANVLQDYIDGPREPVFDEHGRRPLVTTPQGRASTSTFRTTMYRVTRPCWRGAECPHDRDPEECEATSNRKASTCPSARSPHDVRSGRVTAYRREDVPRRVVSDRLNASDQILDKHYDRRGEREKSEQRRDYLPEV | failed |
